Results on 16 sequences are retold here after the DeepSol protein solubility set.

This series can be described thus: soluble on expression in E. coli; label from the status in PepcDB or PDB records.
On to “MNTQKRQQIRTEIRKIRANLTALQQHQAEQSVTQHALNLIEQRQAKNIALYFSFDGEISTKALIQSLWMQNKNVYLPVLHPFTKHYLLFLRYLPDTPMKQNQFGIWEPKLNVQNVLPLNELDILFTPLVAFDKKGNRLGMGGGFYDRTLQNWQNKSFIPVGLAYQCQQVENLPTEHWDVPLFDILVGLEHHHHHH”, for which the “soluble on expression in E. coli” value is given as “not soluble”.
For “MNTQTGTGTSEVSKKLKAAIRAKLEELGVYVDDELPDYIMVMIANKKEKVQMKDDLNLFIGKSTAKFVDWLFDLFDRLQNASNKQGETSKKEEDKRKELEATAAAKEHEEKRRKEKEEHEKELQKEKEREKERQRERDREKRAEEEKRREEKRKEIQRSKRRRTRSRSNTYSDEEEHVRARGEKHDRHHHKDHRRGRSHERKIITSTIVRQASASPDKKLHSTVTVKRNIRPTGDQNIKGRGTMFLRAMNEASVSAGYGSSSKRSETHHEDDMSDVEALPSKPASTKSPKKSIRDRMSRISKTSEPPIEEDDAVVLEDFAQTGGGPQMILKLSGGREAIKKTRIQDRIVVDDGLRRGLLKRKIETASGASAGAATSEEPKSKHDRIIFDITPSRDSTPTDDSPTMQKWNGQIEIGDDSEESEDDEEAEIDAFVAEARGIARRESFRDEEDELPPTHQLSGGPYAYHHSTAAPTYIPTPLSVLSEQQNQMGGGAAKEDHHVKERCIFWPKCTKGDTCAFMHPTTNCKNFPNCTFGIRCLFIHPPCRFDRFCTKKHCPFTHHGTGGQQPGGAQLTSEFKNPLTSSRMLTVPSPFIAATAAAVEELPKPAARGALGSLAEKLAASIKKKPAPGAESEKKEEKSDENESKAEEPKAEVAPVQPKPLPDIAPLHSMVLCRYAGACRNPICHFKHPKECRFGANCRNPSCYFYHKPAGAAPTPVAAPIAAESAGAAKYKWTSATAN”, the “soluble on expression in E. coli” value is on record as “not soluble”.
In the case of “MNTRIKPVRSFLFVPGNKESMLDKAAQAGADALILDLEDSVPSPEKTAARELVAKKIPELIAQNQRIWVRINRTAHIYDLDDILAVAPAGIEGIYISKPGGPEDVYMASCMIAEAEARANLPLGSIGLIPLLETARSMQLCYDIAQMPRVAGIVGATARNADMGRALKFVWTAEGRETEYLKSRVVMAARAAGKQAIGGLWQQIKDLDGLAKSSAFDRQLGMSGELVLHPMQVETINRTYTPTAEDVAYYQGMIEALDAAQAQGRASVMYEGEHIDIAHVKTAHEVIALAQSFGN”, the “soluble on expression in E. coli” value is “not soluble”.
The same measure for “MNVDLHCHSTASDGALSPTALVARAHEYGVRVLSLTDHDTLEGLEEARTAAHSLGMQLVNGVELSCTWGGATIHVLGYGFDTQAPALTEAIARLHEGRWLRAEEISRKLAIKGMPGALEGARAIQQALGDSGNAPARPHFADFMVRAGFVKDRAEAFRKWLGAGKLGDVKQHWPTLEDTVATLRASGAWVSLAHPSHYDFTRSKRRKLVGDFVQAGGHAIEVVNGMQPADQVGTLAILAREFGLLVSAGSDFHGPGNWGEIGTYRPVPEDLPPLWCRFKHEQPTAAV”: “not soluble”; for “MNVFNPAQFRAQFPALQDAGVYLDSAATALKPEAVVEATQQFYSLSAGNVHRSQFAEAQRLTARYEAAREKVAQLLNAPDDKTIVWTRGTTESINMVAQCYARPRLQPGDEIIVSVAEHHANLVPWLMVAQQTGAKVVKLPLNAQRLPDVDLLPELITPRSRILALGQMSNVTGGCPDLARAITFAHSAGMVVMVDGAQGAVHFPADVQQLDIDFYAFSGHKLYGPTGIGVLYGKSELLEAMSPWLGGGKMVHEVSFDGFTTQSAPWKLEAGTPNVAGVIGLSAALEWLADYDINQAESWSRSLATLAEDALAKRPGFRSFRCQDSSLLAFDFAGVHHSDMVTLLAEYGIALRAGQHCAQPLLAELGVTGTLRASFAPYNTKSDVDALVNAVDRALELLVD”: “soluble”; for “MNVLLMAYGTPYAPEEVEPYYTDIRRGRRPSEELLKELAERYEAIGKSPLNEITLAQAVRLQALLNLEAPPYPKRLLSPFPPRAPHGPARVYVGTKHWHPSIGEAVAAMHEDGVRRAVAIVAAPHYSLRSVAEYREKVDSALKALPEPIDFVWVESYEAHPGLIAAYARRLEEVIWRLKNPGKAAYVFTAHSIPLSAVEKGDPYPRQVEKTAELIAKKLALPRFHVAYQSAGRTPEPWLGPDINELLRTLKEEGYEEVAVQAVGFPADHLEVFYDLDLEAQATARELGLRLLRARSLNADLDYIQVLKDLVEAAWPR”: “soluble”.
The same measure for “MNVMDTHPDGRAIAHLAERIRAGLIGHEILVERLMTALLTGGHVLIEGAPGLAKTRAVKRLAQGLDGSFARIQCTPDLMPSDLTGTQVFRRQSESFDFVPGPIFHSLVLVDEINRAPPKVQSALLEAMAEGQVTAGGVTRPLPDPFMVVATQNPIEHEGTFPLPEAQLDRFLLHVDLAMPGAEAERAILDLVEGEAREAALPAGRPLELAELRRARAAVAGIHLAPALRDFIVRLVIATRETEGSPLEGLIEHAVSPRGTLALAASARSRALLHGRDHALPEDVEALAPDALAHRLVPSWRATSEGISARGIVARLLPHVRPWLEHHHHHH”: “not soluble”.
The value for “MNVSHISAVSYYFARYIQEVLEVPVGIVVSTWGGSKIEAWMSRESIKPFSSIDLSILDNDAEVKNPTATPCVLYNGKIAPLTNFAVRGFLWYQGESNRDNADLYQSLMPAFVADLRAKWGRGELPFYFVQIAPFDYEGADGTSAARLREVQLQNMKDIPNSGMVTTMDVGHPVFIHPVDKETVGNRLAYWALAQTYGMKGFGYAPPVYKSMEIQENKIYINFYNAQRGLSPMWTSLKGFEIAGEDKVFYPAFAEIETTTARLAVSSDKVSHPVAVRYAYKNYVEASIFSIHGIPAAPFRTDNWLEHHHHHH” was “not soluble”.
In the case of “MNVVILDTGCANLNSVKSAIARHGYEPKVSRDPDVVLLADKLFLPGVGTAQAAMDQVRERELFDLIKACTQPVLGICLGMQLLGRRSEESNGVDLLGIIDEDVPKMTDFGLPLPHMGWNRVYPQAGNRLFQGIEDGAYFYFVHSYAMPVNPWTIAQCNYGEPFTAAVQKDNFYGVQFHPERSGAAGAKLLKNFLEM”, the “soluble on expression in E. coli” value is given as “soluble”.
The same measure for “MNVVIVRYGEIGTKSRQTRSWFEKILMNNIREALVTEEVPYKEIFSRHGRIIVKTNSPKEAANVLVRVFGIVSISPAMEVEASLEKINRTALLMFRKKAKEVGKERPKFRVTARRITKEFPLDSLEIQAKVGEYILNNENCEVDLKNYDIEIGIEIMQGKAYIYTEKIKGWGGLPIGTEGRMIGILHDELSALAIFLMMKRGVEVIPVYIGKDDKNLEKVRSLWNLLKRYSYGSKGFLVVAESFDRVLKLIRDFGVKGVIKGLRPNDLNSEVSEITEDFKMFPVPVYYPLIALPEEYIKSVKERLGL”: “soluble”; for “MNVVKISPRGYCYGVVDAMVLARQAAQNLDLPRPIYILGMIVHNKHVTDAFEEEGIISLDGPNRLDILKQVDKGTVIFTAHGVSPQVRKLAKEKGLTVVDATCPDVTRTHDLIREKSQEGYKFIYVGKKGHPEPEGAIGVAPEFVHLVENVEDVESLDISADKIIITNQTTMSQWDVSEIMKKAMEKYPQAEVHNEICLATQVRQEAVAEQARECDLVIVVGDPKSNNSNRLAQVSEQIAGTKAYRIGDVTELQQEWFDGVETVGVTAGASTPTPITKEVIAFIEKYDPSKPETWTPERKVTLQKILPKVKIKKLEHHHHHH”: “soluble”.
Regarding “MNVVRYTPWPGQAALQNEIKQVFDRFFEHNGDTDESAVVTAQWVPRVDIKEEPNQFVLYADLPGIDPADIEVQMDKGILSIKGERKTESSSQTEHFSRIERRYGSFHRRFALPDSADADGITASGSHGVLRILIPKQAATTPRRIQVGNAVSSDVALQSMLEHHHHHH”, the “soluble on expression in E. coli” value is “soluble”.
The value for “MNYAIQSETRHYPYLEVSARKRALKHSLIRVEQGLLLFRLGKHEYAVEKGQTLWIPFDCLCGLTFFPDTHITRVDFSLRLNVRLPHNAGFIKSSELALAVLHRLQNCERHHPTFTHLTQLLMLELTTCDPKLKMSPLTQAITEWQPQAHASVSKEQHVVLLVREALKRSQSGAQTHSIIEELFSGNAEHYHQLCTLVLGRTL” was “not soluble”; that for “MNYFPDEVIEHVFDFVTSHKDRNAISLVCKSWYKIERYSRQKVFIGNCYAINPERLLRRFPCLKSLTLKGKPHFADFNLVPHEWGGFVLPWIEALARSRVGLEELRLKRMVVTDESLELLSRSFVNFKSLVLVSCEGFTTDGLASIAANCRHLRDLDLQENEIDDHRGQWLSCFPDTCTTLVTLNFACLEGETNLVALERLVARSPNLKSLKLNRAVPLDALARLMACAPQIVDLGVGSYENDPDSESYLKLMAVIKKCTSLRSLSGFLEAAPHCLSAFHPICHNLTSLNLSYAAEIHGSHLIKLIQHCKKLQRLWILDSIGDKGLEVVASTCKELQELRVFPSDLLGGGNTAVTEEGLVAISAGCPKLHSILYFCQQMTNAALVTVAKNCPNFIRFRLCILEPNKPDHVTSQPLDEGFGAIVKACKSLRRLSLSGLLTDQVFLYIGMYANQLEMLSIAFAGDTDKGMLYVLNGCKKMKKLEIRDSPFGDTALLADVSKYETMRSLWMSSCEVTLSGCKRLAEKAPWLNVEIINENDNNRMEENGHEGRQKVDKLYLYRTVVGTRMDAPPFVWIL” was “not soluble”; that for “MNYGFNFLHNTIIMMIIRSIIFRNFLFSISQLSQLNNVNTCSIIFHSLFTHFQITSHFTQMAAASSAPHQMQVRVTFYTSHNPQSVLMILKNDQALQQISEKARELFPSADYRLYYGDVNGPIFEFTNSDQIMSKIRITTFSRTPQLFVRLETVPLRPTALPSVSTETAKKASDADRESKSRSSLKRIENNQELTLKTLEKLQKELSRVSALETMVADLHAKEREPVVEEVQKPFPPVKHSASCDACLGDIIGHRFKCLECADYDLCEKCERKSLHYEHAMIRIVEPKKTMIPSYVTSNSPNNVFPTYMQHKIQQPQTIKGINKTVITRLVPSHQVNPAPMPQAPPVSTPVPFPPSPTIGNGAVPKPAQEPRIPPSPTSALPPPQFFNEETRAAIINSAALLKETFSTLSRSFLDLADGAQANMDKKIIERSTMEAGMTKFEEKMDNLKRHCEEKYLGTETAEAEKSEESSKKQADSLSGPKIKKAKKKSCYKKSAERLFTMQLAAAAAEQARLEQEAKKRAEASSAELQRKLAELNVKESQSKSEENIADFVLYDLYGNSLEALLRGRSSSRIADPPTTPNTEPATTELASTTSATPAVTAPASIVPVTPTAPIVETLIVPPLPPVESNPEEVTPMVTAPISIHSSFENISSDFESLSPSWGGYPDLEAAQRLEVIDDNLLDFSDVAVEAQEAQEAQEEARPEPEQSLPPFNEETEKTFDRLLEMGFSYNVTVAAIRANGSNLEMCLQALLH” was “not soluble”.
The value for “MNYILGTILESKITGVEKAQINRLKLFKQHGISSKCVYVKWNPYSYTYAKQHQIENDVFTMYDYFQKAINYKKTKQVNWIQYWEKSCRYTLKFVENSNDVRIYDEEQFVMYAHFLDKQYHQLNYVNYFDHKRRKVKRELYDGRGFLSCSRILGEGQRIVLENYYTPNGEIVIQKYFDDIKGKNTLTKVILNEDQHQQFFDTEDELVQYFLHQLCKNNDQIILDRPHELGNVIAGLNQSIPVIVVLHSTHLSGAGNGIKSFYKTVFNNLTRYKAIVVSTEKQCQDISQYIENKIPVINIPVGYVANLKYQFDINQKEKNHIISIARLVENKQIKHQIEVIKQLVTKHPNIQLNIYGHGNGLSEYRQLVEDYHLSEHVKFHGFKTHINEEIAKAELMLSTSKMEGFGLAILESLSVGTPVISYDVDYGPSELIQDGFNGYLVPQGDINQMVEKVDQLLNNTQKLQQFSINSIESAQQYNATTISTKWQNILN” was “not soluble”.
